Data on one molecule can be found in US20250009896A1, “SUPR[…] BASED VIRAL […] CAPTURE FOR PREVENTION AND THERAPY OF VIRAL INFECTION” (The Johns Hopkins University, priority 2023, published 2025).

Assay [1] addresses T1, Recombinant human angiotensin-converting enzyme 2 (ACE2) protein, carrier-free (R&D Systems) (human), Q9BYF1.
In assay [2] the target is T1, Recombinant human …. In words: calculated reference value for the zeta potential of the mixture.

T1 sequence (Q9BYF1 18-740 limits assumed): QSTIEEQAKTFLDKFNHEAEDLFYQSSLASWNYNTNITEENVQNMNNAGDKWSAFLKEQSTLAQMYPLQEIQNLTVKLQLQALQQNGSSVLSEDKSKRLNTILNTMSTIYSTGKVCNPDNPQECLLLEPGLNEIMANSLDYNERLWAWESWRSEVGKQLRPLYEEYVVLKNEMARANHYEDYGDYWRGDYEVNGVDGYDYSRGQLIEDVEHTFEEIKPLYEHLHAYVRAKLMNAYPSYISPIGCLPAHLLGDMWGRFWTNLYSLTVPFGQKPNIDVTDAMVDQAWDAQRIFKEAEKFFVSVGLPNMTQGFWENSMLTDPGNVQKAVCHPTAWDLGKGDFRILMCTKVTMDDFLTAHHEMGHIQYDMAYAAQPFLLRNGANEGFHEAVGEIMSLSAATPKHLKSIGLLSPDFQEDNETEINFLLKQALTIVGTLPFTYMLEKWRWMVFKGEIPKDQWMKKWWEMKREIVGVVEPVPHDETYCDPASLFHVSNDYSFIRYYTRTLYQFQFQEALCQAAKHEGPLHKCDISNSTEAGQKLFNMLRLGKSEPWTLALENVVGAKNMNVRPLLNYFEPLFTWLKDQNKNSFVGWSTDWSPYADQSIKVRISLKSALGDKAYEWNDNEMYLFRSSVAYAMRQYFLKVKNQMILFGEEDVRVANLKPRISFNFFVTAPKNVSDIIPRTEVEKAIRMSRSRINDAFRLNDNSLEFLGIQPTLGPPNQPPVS

VVVGKKGGYPKYPCTGSGSDGDELCGWYPHWPYR (modifications not checked) [sLigand peptide amphiphile (scrambled analog of Ligand)]: the zeta potential of the mixture, measured in assay [1] is -19.2 mV. In assay [2], the intensity-averaged zeta potential calculated assuming no interaction is -19 mV.
